Assay results as given in paper PMC5297931.

Molecular target: Haemophilus surface fibril (Hsf) putative domain 1 (PD1) (H. influenzae)
Assay: SEC-MALLS; Superdex 200 5/150, buffer C (50 mM Tris, 150 mM NaCl pH 8.0), 0.2 ml/min; LS, dRI and UV detectors; IMAC- and SEC-purified HsfPD1

## Haemophilus surface fibril (Hsf) putative domain 1 (PD1) (domain or fragment)
  stoichiometry N: 3
